{
  "source": "patent US20220396614A1",
  "about": "(DEUTSCHES KREBSFORSCHUNGSZENTRUM, published 2022)",
  "binders": {"B1": {"name": "monoclonal antibody 2541 (antibody, V domains shown)", "VH": "QVQLVESGGGVVQPGRSLRLSCAASGFTFSSYGMHWVRQTTGKGLEWVAIIWHDGSKKYYADSVKGRLTISRDNSKNTLYLQMNSLRVEDTALYYCARVGDYSDFKYGAFDIWGQGTMVTVSS", "VL": "DIQMTQSPSTLSASVGDRVTITCRASQSISSWLAWYQQKPGKAPNLLIYKASTLESGVPSRFSGSGSGTEFTLTISSLQPDDFATYYCQQYNSYWTFGQGTRVEIK"}},
  "biological_target": "Plasmodium falciparum circumsporozoite protein (PfCSP) on Pf NF54 salivary gland sporozoites (Plasmodium falciparum (NF54))",
  "assay": "cell-based or functional assay",
  "data": [
    {"binder": "B1", "values": [
      {"measurement": "IC50, in vitro Pf-traversal inhibition assay", "result": "< 1", "unit": "µg/mL"}
    ]}
  ]
}
